Source: patent US20150051149A1 (published 2015)

B1: N-terminal to BC Loop SEQ ID NO 53 (peptide)
peptide: MGEVVAATPTSLLIS
B2: BC Loop SEQ ID NO 58 (peptide)
peptide: PTSLLISWDAPAVTVRYYRITYG
B3: DE Loop SEQ ID NO 51 (peptide)
peptide: PVQEFTVPGSKSTATISGLK

How the values were obtained:
DRB*0701 = DRB*0701 (human); assay: HLA competition binding
DRB*0301 = DRB*0301 (human, UniProt P01903 26-216); assay: HLA competition binding

| Binder | IC50 (DRB*0701) [nM] | IC50 (DRB*0301) [nM] |
| --- | --- | --- |
| B1 | 500 | 1000 |
| B2 | 1000 | – |
| B3 | > 200000 | – |
